Assay: label from the status in PepcDB records
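Also: failed if final PepcDB status was selected cloned or expressed and not failed if soluble or beyond.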

| Sequence | protein production |
| --- | --- |
| MQKGNIRIAIDKGGTFTDCVGNIGTGKQEHDTVIKLLSVDPKNYPDAPLEGIRRLLEVLEHKTIPRGIPLDISNVRSLRMGTTLATNCALERNGERCAFITTKGFKDSLLIGDQTRPDIFNLNIKKVVPLYDTVVEIDERVTLEDFSEDPYFTKSSPNEQEGILEGNSGEMVRVIKKPDESSVRSILKVLYASGIKSIAIAFLHSYTFPDHERIVGNIAREIGFSHVSLSSEVSPMIKFLPRAHSSVADAYLTPVIKKYLNSISAGLSHAEDTHIQFMQSDGGLVDGGKFSGLKSILSGPAGGVIGYSSTCYDKNNNIPLIGFDMGGTSTDVSRYGDGRLEHVFETVTAGIIIQSPQLDIHTVAAGGSSILSWKNGLFRVGPDSAAADPGPAAYRKGGPLTITDANLFLGRLVPEFFPKIFGPNEDESLDLETTTLKFRELTDVINKDLNSNLTMEEVAYGFIKVANECMARPVRAITEAKGHVVSQHRLVSFGGAGGQHAIAVADSLGIDTVLIHRYSSILSAYGIFLADVIEENQEPCSFILGEPETILKVKKRFLELSKNSIKNLLSQSFSREDIVLERYLNLRYEGTETSLMILQKYDDQWNFREWFSEAHKKEFGFSFDDKRIIIDDIRIRAIGKSGVRKEKTVDEQLIEISHFKKADVSKDASFTQKAYFDNKWVDTAVFKIDDLPAGTIIEGPAILADGTQTNIILPNSQATILNSHIFIKINQKAAKTLSKSGYELDIDPILLSIFSHRFMDIALQMGTQLRKTSVSTNVKERLDFSCALFDSKGNLVANAPHVPVHLGSMSTCISAQAKLWEGKLKPGDVLITNHPDIGGTHLPDITVITPSFSSTGELIFYVASRAHHADIGGILPGSVPPNSKELYEEGTAIYSELVVKEGIFQEELIYKLFVEDPGKYPGCSGSRRFSDNISDLKAQVAANTKGIQLIGSLTKEYDLATILKYMAAIQTNASESIKKMLAKMVEHFGTTKFSGEDRLDDGSLIKLQVIIRPEKEEYIFNFDGTSPQVYGNLNAPEAITNSAILYCLRCLVGEDIPLNQGCLKPLTIKIPAGSLLSPRSGAAVVGGNVLTSQRVTDVILKTFNVMADSQGDCNNFTFGTGGNSGNKTDKQIKGFGYYETICGGSGAGADSWRGSGWNGSDAVHTNMTNTRMTDTEVFERRYPVLLKEFSIRRGSGGKGKYTGGNGVVRDVQFRKAVTASILSERRVIGPHGIKGGQDGSRGENLWVRHSTGALINVGGKNTIYAQPGDRFIIKTPGGGGFGQYKD | failed |
| MRPLAAILALPILEIALFVTIGGAIGLLATLLIIFGTAALGVFLLRRQGVEMQAALQMPRRMDPLALMADGAAVSLAAALLILPGFFTDTVGLLLLIPPVRRALIRRLGRNVQVRSTTWRGPVRDDAPIEADYHEVEPVRDPLAPPSQPPGSSGWTRH | failed |
| MIYKITLTDISLAQAFISIPQDVIALDLSNNLLGSKSCVDLLVNIADCIPAGVTSLDLSSNGLRLTQVSLVTPKHVTSLNLCFNPLHEISIDGLEWLKDSLAHIQIIYLSYDMVNNMSREQRQAFRAVIPNIQTIILVDKNGKEIGPSHTAKIANLISELGGGNPEVPSLLNQCTFFVKTQGINIDKAYIPEELKKRIHDCNPL | failed |
| AQNFSDYFTNKTLRIDYLFTGNADKQSICLDELSELPVWAGRRHHLSELPLEGNGQIVMRDVASGKVIYTTSFSSLFQEWLETDEAKEVTKGFENTYLLPYPIKPAEVEITLRNNKREVSANLKHVVKPDDILIHKKGLTHITPHKYLLKSGNEEQCIDVAILAEGYTTSEMETFYKDAAIACEALFSHEPFQSMKNRFNIVAVASPSADSGVSAPKQGAWKHTAFGSHFDTFYSDRYLTTSRVKAINDALAGIPYEHIIILANTEQYGGGGIYNAFTLTTAHHPNFRPVVVHEFGHSFGGLADEYFYDEDVMNGLYPLNIEPWEQNITTRINFASKWEDMLTKTTPVPTPVADKAKYPIGVYEGGGYSAKGIYRPAFDCRMRTNEYPTFCPVCQRAIQRIIEFYTGK | not failed |
| MSVYLVALIGILILGLYILDLRKHKITTREIIMIGLSVAISYVLYMIPLVRYPQGGGITFFSMLPIMLLSLVYGRTVGVTGGLIFGLLKILNGAFIVHPVQFLLDYILSNMALGLAGSFGIDKKYKIFLGSLMAGSISTFVSIVSGVIFFGQYAPPGMNLWIYSIIYNTSSAGVESLLTAIVITIMPIKMLAKRMKPINNI | failed |

From a protein production outcome set (Wang et al. 2014)
